Experimental findings from patent US20230277593A1 are described below.

Test [1] concerns the target HLA-A*02 on target cells (human). The experiment in a line: cell-based or functional assay.
In test [2] the target is Epidermal Growth Factor Receptor (EGFR) on target cells (human), P00533. The experiment in a line: cell-based or functional assay.

B1: HLA-A*02 PA2.1 scFv LIR1 inhibitor (C1765) (scFv, part only; not given: LIR-1 hinge, transmembrane and intracellular, part only)
scFv, part: DVLMTQTPLSLPVSLGDQASISCRSSQSIVHSNGNTYLEWYLQKPGQSPKLLIYKVSNRFSGVPDRFSGSGSGTDFTLKISRVEAEDLGVYYCFQGSHVPRTSGGGTKLEIKGGGGSGGGGSGGGGSGGQVQLQQSGPELVKPGASVRISCKASGYTFTSYHIHWVKQRPGQGLEWIGWIYPGNVNTEYNEKFKGKATLTADKSSSTAYMHLSSLTSEDSAVYFCAREEITYAMDYWGQGTSVTVSS
In test [1], B1 showed a Mouse Blocker EC50 (ng), with activator CT486; HLA-A*02 mRNA titrated into target cells of 4700 ng; a Mouse Blocker EC50 (ng), with activator CT487; HLA-A*02 mRNA titrated into target cells of 3500 ng; a Mouse Blocker EC50 (ng), with activator CT488; HLA-A*02 mRNA titrated into target cells of 4700 ng; a Mouse Blocker EC50 (ng), with activator CT489; HLA-A*02 mRNA titrated into target cells of 4200 ng. In addition, in test [1], the selectivity ratio (mouse blocker C1765 paired with CT486) is 15.7; the selectivity ratio (mouse blocker C1765 paired with CT487, first mention) turned out to be 18.4; the selectivity ratio (mouse blocker C1765 paired with CT487 as printed, second mention) is 21.2; the selectivity ratio (mouse blocker C1765 paired with CT489) turned out to be 21.6. Moreover, the shift of CAR EMAX (Jurkat NFAT-luciferase, with EGFR CAR CT479, HeLa target cells) in test [1] was more than 5 fold.

B2: HLA-A*02 PA2.1 scFv LIR1 inhibitor (C2162) (scFv, part only; not given: LIR-1 hinge, transmembrane and intracellular, part only)
scFv, part: QVQLVQSGAEVKKPGSSVKVSCKASGYTFTSYHIHWVRQAPGQGLEWIGWIYPGNVNTEYNEKFKGKATITADESTNTAYMELSSLRSEDTAVYYCAREEITYAMDYWGQGTLVTVSSGGGGSGGGGSGGGGSGGDIQMTQSPSTLSASVGDRVTITCRSSQSIVHSNGNTYLEWYQQKPGKAPKLLIYKVSNRFSGVPARFSGSGSGTEFTLTISSLQPDDFATYYCFQGSHVPRTFGQGTKVEVK
With B2, in test [1], the Human Blocker EC50 (ng), with activator CT486; HLA-A*02 mRNA titrated into target cells came out at 4000 ng; the Human Blocker EC50 (ng), with activator CT487; HLA-A*02 mRNA titrated into target cells is 2900 ng; the Human Blocker EC50 (ng), with activator CT488; HLA-A*02 mRNA titrated into target cells was 3500 ng; the Human Blocker EC50 (ng), with activator CT489; HLA-A*02 mRNA titrated into target cells turned out to be 3200 ng. In test [1], the selectivity ratio (humanized blocker C2162 paired with CT486) was 17; the selectivity ratio (humanized blocker C2162 paired with CT487, first mention) came to 5; the selectivity ratio (humanized blocker C2162 paired with CT487 as printed, second mention) is 5; the selectivity ratio (humanized blocker C2162 paired with CT489) was 24.2.

B3: CT-487 EGFR scFv CAR activator (scFv, not shown: small tags and cut ends)
scFv: QVQLVQSGAEVKKPGASVKVSCKASGYTFTSHWMHWVRQAPGQGLEWIGEFNPSNGRTNYNEKFKSKATMTVDTSTNTAYMELSSLRSEDTAVYYCASRDYDYDGRYFDYWGQGTLVTVSSGGGGSGGGGSGGGGSGGDIQMTQSPSSLSASVGDRVTITCSASSSVTYMYWYQQKPGKAPKLLIYDTSNLASGVPSRFSGSGSGTDYTFTISSLQPEDIATYYCQQWSSHIFTFGQGTKVEIK
Consider B3, for which the Activator EC50 (ng); EGFR mRNA titrated into EGFR negative target cells in test [2] is 3500 ng.
